Results reported in patent publication US20190194284A1.
Read-outs that look alike come from different tables or passages of the source.

T1: type I interferon-α/β receptor (IFNAR), composed of the IFNAR1 and IFNAR2 subunits (human) (UniProt P17181)
T1 sequence (looked up) 1: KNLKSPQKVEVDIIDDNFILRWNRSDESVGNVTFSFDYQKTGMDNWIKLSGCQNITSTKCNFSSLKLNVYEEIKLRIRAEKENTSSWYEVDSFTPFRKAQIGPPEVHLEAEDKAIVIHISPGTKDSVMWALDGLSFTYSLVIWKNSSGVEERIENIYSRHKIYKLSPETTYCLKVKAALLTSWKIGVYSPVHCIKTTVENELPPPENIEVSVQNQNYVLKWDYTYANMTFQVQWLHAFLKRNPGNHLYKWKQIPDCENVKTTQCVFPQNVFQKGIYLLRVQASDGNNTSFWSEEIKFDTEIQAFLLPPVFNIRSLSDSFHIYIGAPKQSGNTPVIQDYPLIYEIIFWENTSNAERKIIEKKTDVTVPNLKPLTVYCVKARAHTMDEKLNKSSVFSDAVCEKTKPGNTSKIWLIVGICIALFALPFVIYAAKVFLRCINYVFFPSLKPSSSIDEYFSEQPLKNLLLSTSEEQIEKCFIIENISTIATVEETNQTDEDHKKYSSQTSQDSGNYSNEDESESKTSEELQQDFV
T1 sequence (looked up) 2: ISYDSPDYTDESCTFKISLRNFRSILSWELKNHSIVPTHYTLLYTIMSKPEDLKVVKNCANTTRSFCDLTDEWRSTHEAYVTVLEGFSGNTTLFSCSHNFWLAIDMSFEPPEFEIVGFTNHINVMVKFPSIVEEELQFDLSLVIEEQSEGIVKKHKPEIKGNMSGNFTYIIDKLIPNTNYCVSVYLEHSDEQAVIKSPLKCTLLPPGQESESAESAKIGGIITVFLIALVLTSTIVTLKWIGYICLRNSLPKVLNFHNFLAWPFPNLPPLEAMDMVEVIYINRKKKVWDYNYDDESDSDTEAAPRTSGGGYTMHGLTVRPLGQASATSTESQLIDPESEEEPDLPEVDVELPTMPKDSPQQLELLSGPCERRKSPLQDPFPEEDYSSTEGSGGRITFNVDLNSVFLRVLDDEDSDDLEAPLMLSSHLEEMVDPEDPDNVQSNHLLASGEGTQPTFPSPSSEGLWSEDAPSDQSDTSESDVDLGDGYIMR

T2: human CD20 (human) (UniProt P11836)
T2 sequence (looked up): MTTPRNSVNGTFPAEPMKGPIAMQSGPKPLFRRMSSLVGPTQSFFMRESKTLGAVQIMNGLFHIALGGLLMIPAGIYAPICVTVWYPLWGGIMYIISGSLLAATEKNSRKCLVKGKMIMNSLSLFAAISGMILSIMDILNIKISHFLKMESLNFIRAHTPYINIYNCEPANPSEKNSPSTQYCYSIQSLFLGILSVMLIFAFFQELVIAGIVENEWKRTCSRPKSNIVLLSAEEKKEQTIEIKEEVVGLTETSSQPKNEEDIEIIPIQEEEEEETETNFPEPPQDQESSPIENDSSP


Columns and labels:
Experiment in all cases: cell-based or functional assay
[1] = target: T1, type I interferon-α/β receptor (IFNAR), composed of the IFNAR1 and IFNAR2 subunits (human)
[2] = target: T1, type I interferon-α/β receptor (IFNAR), composed of the IFNAR1 and IFNAR2 subunits (human); remark: listed apart in the source
human CD20 (human) = target: T2, human CD20 (human)

EC50 for pSTAT1 in CD19 negative cells of human PBMCs [1] | EC50 for pSTAT1 in CD19 positive cells of human PBMCs [1] | EC50 for pSTAT1 in CD19 negative cells of human PBMCs [2] | EC50 for pSTAT1 in CD19 positive (CD20 positive B) cells of human PBMCs (human CD20 (human)) | Targeting effect (EC50 on CD19 negative cells divided by that on CD19 positive cells) (human CD20 (human)) | targeting effect, anti-proliferative activity on Daudi (CD20 positive) versus Wish (CD20 negative) cells (human CD20 (human)) | Molecule
0.592 ng/ml | 0.422 ng/ml |  |  |  |  | wild type human IFN-β (from UniProt P01574 22-187) (ligand)
 |  | 687 ng/ml | 97 ng/ml | 7.1 fold | 24.3 fold | huCD20 VHH-20*GGS-huIFNβ-6*His, wild type hIFNβ coupled to anti-huCD20 VHH (P-126) (protein) QVQLQESGGGLAQAGGSLRLSCAASGRTFSMGWFRQAPGKEREFVAAITYSGGSPYYASSVRGRFTISRDNAKNTVYLQMNSLKPEDTAVYYCAANPTYGSDWNAENWGQGTQVTVSSGGSGGSGGSGGSGGSGGSGGSGGSGGSGGSGGSGGSGGSGGSGGSGGSGGSGGSGGSGGSMSYNLLGFLQRSSNFQCQKLLWQLNGRLEYCLKDRMNFDIPEEIKQLQQFQKEDAALTIYEMLQNIFAIFRQDSSSTGWNETIVENLLANVYHQINHLKTVLEEKLEKEDFTRGKLMSSLHLKRYYGRILHYLKAKEYSHCAWTIVRVEILRNFYFINRLTGYLRNHHHHHH
